In patent publication US20110171215A1 (published 2011):

B1: Clone 10 anti-PD-1 antibody (antibody, V domains shown)
VH: DVQLQESGPGLVKPSQSLSLTCTVTGYSITSDYAWNWIRQFPGNKLEWMGYINYSGSTSYNPSLKSRISITRDTSKNQFFLQLNSVTTEDTATYYCARWIGSSAWYFDVWGAGTTVTV
VL: DVLMTQTPLSLPVSLGDQASISCRSGQNIVHSNGNTYLEWYLQKPGQSPKLLIYKVSNRFFGVPDRISGSGSGTDFTLKISRVEAEDLGVYFCFQGSHVPFTFGSGTKLEIK
B2: Clone 2 anti-PD-1 antibody (antibody, V domains shown)
VH: QVQLQQPGAELVKPGASVKLSCKASGYTFTTYYLYWVRQRPGQGLEWIGGINPSNGGTNFNEKFKSKATLTVDKSSSTAYMQLNSLTSEDSAVYYCTRRDYRYDRGFDYWGQGTSVTV
VL: DIVLTQSPASLAVSLGQRATISCRASKSVSTSGFNYIHWYQQKPGQPPKLLIYLASNLESGVPARFSGSGSGTDFTLNIHPVEDEDAATYYCQHSRELPLTFGAGTKLEIK
B3: Clone 19 anti-PD-1 antibody (antibody, V domains shown)
VH: QVQLQQSGAELVKPGASVKMSCKAFGYTFTTYPIEWMKQNHGKSLEWIGNFHPYNDDTKYNEKFKGKAKLTVEKSSTTVYLELSRLTSDDSAVYYCARENYGSHGGFVYWGQGTLVTV
VL: ENVLTQSPAIMSASPGEKVTMTCRASSSVISSYLHWYQQKSGASPKLWIYSTSNLASGVPDRFSGSGSGTSYSLTISSVEAEDAATYYCQQYNGYPLTFGAGTKLEIK

Target: Monomeric soluble human PD-1 (human, UniProt Q15116 25-170)
Assay: SPR

Sequence of Monomeric soluble human PD-1 (Q15116 25-170): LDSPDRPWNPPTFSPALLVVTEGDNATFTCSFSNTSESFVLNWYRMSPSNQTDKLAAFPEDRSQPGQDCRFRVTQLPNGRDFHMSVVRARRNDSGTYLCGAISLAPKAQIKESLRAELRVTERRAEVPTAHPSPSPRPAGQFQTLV

**Q.** How did the koff turn out when B1 was run?
**A.** Its koff is ~0.4 s⁻¹.

**Q.** Which koff does the source give for B2 here?
**A.** Its koff is ~0.0027 s⁻¹.

**Q.** How did the koff turn out when B3 was run?
**A.** The koff was ~0.0013 s⁻¹.
